Source: article PMC10238420, “Altered Signaling and Desensitization Responses in PTH1R Mutants Associated with Eiken Syndrome” (Communications Biology, 2023)

Key:
[1] = biological target: human PTH1R-WT with an HA tag (parathyroid hormone receptor type 1) (human) (UniProt Q03431)
[2] = biological target: PTH1R-R485X (human PTH1R with an HA tag, C-terminal tail truncated at R485) (human) (UniProt Q03431)
[3] = biological target: PTH1R-E35K (human PTH1R with an HA tag) (human) (UniProt Q03431); test: radioligand binding; total binding of ^125I-PTHrP(1-36) (20,000-30,000 cpm/well) to confluent monolayers of intact, transiently transfected Gs22a cells in 96-well plates; HB (Hanks balanced salt solution, 10 mM HEPES pH 7.4, 0.1% BSA); one hour at room temperature
[4] = biological target: PTH1R-Y134S (human PTH1R with an HA tag) (human) (UniProt Q03431); test: as above

Chain of β-arrestin2-renilla luciferase (rLucII) (P32121 whole entry): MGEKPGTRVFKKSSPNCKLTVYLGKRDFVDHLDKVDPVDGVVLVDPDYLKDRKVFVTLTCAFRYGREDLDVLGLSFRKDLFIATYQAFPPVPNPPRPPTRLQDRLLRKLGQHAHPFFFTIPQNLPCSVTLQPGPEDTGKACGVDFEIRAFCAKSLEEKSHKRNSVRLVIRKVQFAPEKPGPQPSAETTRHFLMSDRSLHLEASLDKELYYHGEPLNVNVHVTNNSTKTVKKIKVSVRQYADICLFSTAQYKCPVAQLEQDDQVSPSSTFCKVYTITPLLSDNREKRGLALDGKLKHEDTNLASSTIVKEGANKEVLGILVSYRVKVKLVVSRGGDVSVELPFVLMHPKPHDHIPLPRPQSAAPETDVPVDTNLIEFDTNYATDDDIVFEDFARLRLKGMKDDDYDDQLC
Chain of ^125I-PTHrP(1-36) (peptide) (P12272 37-72): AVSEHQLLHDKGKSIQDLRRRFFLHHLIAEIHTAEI

β-arrestin2-renilla luciferase (rLucII) (from UniProt P32121 1-409) (natural protein)
PTH(1-34)-induced recruitment of β-arrestin2^rLucII to endosomes (BRET with rGFP-FYVE), fold-BRET increase from baseline [1]: 6.08 fold
PTH(1-34)-induced recruitment of β-arrestin2^rLucII to the plasma membrane (BRET with rGFP-CAAX), fold-BRET increase from baseline [1]: 4.79 fold
PTH(1-34)-induced recruitment of β-arrestin2^rLucII to endosomes (BRET with rGFP-FYVE), fold-BRET increase from baseline [2]: 1.33 fold
PTH(1-34)-induced recruitment of β-arrestin2^rLucII to the plasma membrane (BRET with rGFP-CAAX), fold-BRET increase from baseline [2]: 2.69 fold

^125I-PTHrP(1-36) (peptide)
reduction of total binding relative to PTH1R-WT [3]: 50%
reduction of total binding relative to PTH1R-WT [4]: 50%
